The target in the test is T1, Human NEU1 recombinant protein (human, UniProt Q99519 48-415).
T1 construct: human neuraminidase 1 (NEU1), recombinant; Amine-coupled to a CM5 chip; also called recombinant human NEU1; source: recombinant protein, gifted by Dr. Xiao Yibei lab
The test can be described thus: SPR; Biacore T200, 25 °C, HBS-EP+ pH 7.4; human NEU1 amine-coupled to CM5 chip (8000–10,000 RU); ALK5 recombinant proteins flowed at 7.80–500 nM; 1:1 binding model. The conditions noted are these: both partners purified. Background: SPR reads the build-up and loss of mass on a sensor chip optically.

B1: human ALK5_(162-403aa) recombinant protein (domain or fragment, UniProt P36897 162-403, looked up)
chain: EDPSLDRPFISEGTTLKDLIYDMTTSGSGSGLPLLVQRTIARTIVLQESIGKGRFGEVWRGKWRGEEVAVKIFSSREERSWFREAEIYQTVMLRHENILGFIAADNKDNGTWTQLWLVSDYHEHGSLFDYLNRYTVTVEGMIKLALSTASGLAHLHMEIVGTQGKPAIAHRDLKSKNILVKKNGTCCIADLGLAVRHDSATDTIDIAPNHRVGTKRYMAPEVLDDSINMKHFESFKRADIYA
notes: human ALK5 (TGFβ type I receptor), amino acids 162-403; also called amino acid 162–403 region of ALK5; source: bought: Sino Biological Inc
In the case of B1, the dissociation constant (Kd) – broadly, the constant that tells how readily two partners part at equilibrium – amounted to 3.14 nM.

The record behind these values is paper PMC10043283, “Neuraminidase 1 promotes renal fibrosis development in male mice” (Nature Communications, 2023).
